Values joined by “and” are separate entries in the source; they are usually repeats but may differ in a detail not shown here. Equal entries are not always repeated.
What was measured:
[1] = biological target: T1, 4F11 scFv 10xHis; assay: SPR (Biacore), clone 60 captured on anti-mouse Fc, 4F11_scFv_0166-P as analyte, 37 C, 1:1 Binding model; Table 3 prints 1.43 nM for this lot, the sheet prints 1.422E-9
T1 construct: also called 4F11-derived scFv with a His tag; anti-CD70 scFv 4F11
Method: (§1) All SPR analysis was determined on a BIACore T200 SPR instrument (Cytiva, Marlborough, MA). For kinetic analysis and determination of simultaneous target antigen binding of CD70 anti-idiotype antibodies, mouse Fc was captured on a Biacore Series S CM4 sensor chip by amine-coupling of an anti-mouse Fc reagent (Mouse Antibody Capture Kit, Cytiva, BR100838) to the Biacore Series S CM4 sensor chip using a running buffer of 10 mM HEPES, 150 mM NaCl, 0.05% (v/v) Tween-20, pH 7.4 at 25° C. All surfaces of the sensor chip were activated with a 1:1 (v/v) mixture of 400 mM 1-Ethyl-3-(3-Dimethylaminopropyl) carbodiimide hydrochloride (EDC) and 100 mM N-hydroxysuccinimide (NHS) for 7 min at 10 μL/min. The anti-mouse Fc reagent was diluted to 30 μg/mL in 10 mM sodium acetate (pH 5.0) and injected on all four flow cells for 7 min at 10 μL/min, then all flow cells were blocked with 100 mM ethylenediamine in 200 mM Borate buffer pH 8.5 for 7 min at […].
(§2) All interaction experiments were performed at 37° C. using the same running buffer as described above supplemented with 1 mg/mL BSA. […] The dissociation was monitored for 10 min followed by regeneration of all flow cells with 10 mM glycine at pH 1.7 for 3 min. […]

[2] = biological target: T1, 4F11 scFv 10xHis; assay: SPR (Biacore T200), 37 C; antibody captured on anti-mouse Fc chip, 4F11 scFv 10xHis 1.2-100 nM as analyte; 1:1 Langmuir fit
Method: as §1, §2

[3] = biological target: T2, Biotin-hCD70 (human, UniProt P32970 39-193, limits assumed, biotinylated (site not stated)); assay: SPR, Bt-hCD70 alone injected over clone 60 (hybridoma and recombinant) captured on anti-mouse Fc, then streptavidin
T2 construct: also called biotin-hCD70 complex; target antigen hCD70
T2 sequence (looked up): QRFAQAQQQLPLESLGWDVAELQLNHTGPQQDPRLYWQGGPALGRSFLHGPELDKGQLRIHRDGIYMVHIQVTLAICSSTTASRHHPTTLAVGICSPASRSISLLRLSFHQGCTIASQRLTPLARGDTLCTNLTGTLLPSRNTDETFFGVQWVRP

T1 sequence (scFv, as listed by the source): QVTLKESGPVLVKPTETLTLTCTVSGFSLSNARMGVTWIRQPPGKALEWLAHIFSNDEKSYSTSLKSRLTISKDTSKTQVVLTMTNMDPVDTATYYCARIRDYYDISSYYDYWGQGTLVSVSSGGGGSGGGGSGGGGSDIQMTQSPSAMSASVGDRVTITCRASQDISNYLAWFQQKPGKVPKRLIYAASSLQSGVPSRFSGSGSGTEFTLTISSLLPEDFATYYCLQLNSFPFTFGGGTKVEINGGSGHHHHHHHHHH

Kd [1]: 1.42 nM | Kd [2]: 1.43 nM and 1.52 nM and 1.42 nM and 1.32 nM | koff [2]: 0.00343 s⁻¹ and 0.00359 s⁻¹ and 0.00312 s⁻¹ and 0.00348 s⁻¹ | t1/2 [2]: 3.32 min and 3.37 min and 3.7 min and 3.22 min | binding result [3]: no binding (tested: 1 uM)
B1: anti-idiotype antibody Clone 60 (IDA2002-1.60) (antibody, mouse IgG1, kappa, V domains shown)
VH: EVQLQQSGPELVKTGTSVKISCKASGYSITGYYIHWVKQSHGRSLDWIGSISFYNGATTYNQKFKGKVTFTVDTSSSTAYMQFNSLTSEDSAVYYCGRRGDDYDVFAYWGQGTLVTVSA
VL: DIVLTQSPASLAVSLGQRATISCRASESVDSYGYSFLHWYQQKPGQPPTLLIYRASNLESGIPARFSGSGSRTDFTLTINSVEADDVATYYCQQSNEDPWTFGGGTKLEIKR
notes: Mouse IgG1 kappa; also called clone 1.60; Clone 60-PE
kon [2]: 2.7e+06 M⁻¹ s⁻¹ and 2.2e+06 M⁻¹ s⁻¹ (2×) and 2.4e+06 M⁻¹ s⁻¹

Reference: patent US20240228639A1 (ALLOGENE THERAPEUTICS, published 2024)
